The values below come from publication PMC9569350, “Antarctic aldehyde dehydrogenase from Flavobacterium PL002 as a potent catalyst for acetaldehyde determination in wine” (Scientific Reports, 2022).

One series has as its system CC=O. As to the kind of experiment: purified protein. Particulars: 10 mM NAD+ (saturating), 100 mM potassium phosphate pH 7.5, 25 °C, free enzyme.
The subject of series [1] is NC(=O)c1ccc[n+]([C@@H]2O[C@H](COP(=O)(O)OP(=O)(O)OC[C@H]3O[C@@H](n4cnc5c(N)ncnc54)[C@H](O)[C@@H]3O)[C@@H](O)[C@H]2O)c1. Put plainly: purified protein. Particulars: 10 mM acetaldehyde (saturating), 100 mM potassium phosphate pH 7.5, 25 °C, free enzyme, varied: cofactor.

For S2-ALDH (Flavobacterium sp. PL002), in the series on CC=O, the Km stood at 1.88 ± 0.70 mM, the maximal velocity (Vmax) worked out at 2.64 µmol/min/mg, the turnover number (kcat) amounted to 0.432 ± 0.025 s⁻¹ and the catalytic efficiency (kcat/Km) stood at 230 ± 85.2 M⁻¹ s⁻¹. Also, in series [1], the Michaelis-Menten constant (Km) stood at 2.87 ± 0.48 mM, the Vmax was 0.74 µmol/min/mg, the kcat stood at 0.121 ± 0.026 s⁻¹ and the catalytic efficiency (kcat/Km) stood at 42.2 ± 7.05 M⁻¹ s⁻¹.
